In US20210017226A1, “METHOD OF GENERATING INTERACTING PEPTIDES” (Peption, LLC, priority 2017, published 2021):
“Also recorded” adds a separate entry of the source.

What was measured:
[1] = biological target: T1, PDGF-β target sequence (PTD10, […]) (Homo sapiens, UniProt P01127); experiment: Dot blot to detect the PDGF-β target sequence PTD10; format: binding; settings: beta sheet target
T1 construct: […]; purchased Peptide 2.0
Experimental: (§1) Finally, the blot was incubated with the chromogenic substrates.

[2] = biological target: alkaline phosphatase target sequence (PTD8, […]) (Escherichia coli, UniProt P00634); settings: dot blot, coil-beta sheet-coil target
Experimental: For dot blot analysis, 1 μl (2.5 μg) or 2 μl (5 μg) of samples were spotted onto the nitrocellulose (NC) membrane and dried completely. Then, non-specific sites were blocked by soaking the membrane in the blocking solution made for NC membranes [Thermo Fisher Scientific, WesternBreeze™ Blocker/Diluent (Part A and B), catalog #WB7050]. The membrane was washed twice with water (1 ml per cm^2 membrane), and incubated with the 1st antibody (Ab) in a binding/wash (BW) buffer [50 mM sodiumphosphate, pH 8.0, 300 mM NaCl, and 0.01% Tween 20] for 1 h. The membrane was washed 4 times (for 2 minutes per wash) with the wash buffer [Thermo Fisher Scientific, WesternBreeze™ Wash Solution, catalog #WB7003]. If the 1st oligopeptide was Anti-Cas9 Ab-HRP conjugate [Thermo Fisher Scientific, catalog #MAC133P] or the peptide-AP fusions, the membrane was washed twice with water, and incubated with the chromogenic substrates, Chromogenic Substrate (TMB) [Thermo Fisher Scientific, catalog #WP20004] for HRP and NBT/BCIP substrate solution for AP [Thermo Fisher Scientific, catalog #34042]. Otherwise, the membrane was incubated with in the blocking solution for 1 h. To detect His-tagged peptide and proteins, the Anti-6His Ab-HRP conjugate [Thermo Fisher Scientific, catalog 46-0707] was used. Then the membrane was washed four times with the wash buffer and two times with water. Finally, the blot was incubated with the chromogenic substrates.

Cas9 protein [3] = biological target: T2, Cas9 protein (Streptococcus pyogenes serotype M1, UniProt Q99ZW2); experiment: Western blot to detect whole Cas9 protein (denatured); format: binding; settings: Cas9 (no tag), 4-20% SDS-PAGE
T2 construct: made in house; host or cells: E. coli BL21 Star (DE3)
Experimental: as §1

Cas9 protein [4] = biological target: T2, Cas9 protein; experiment: Dot blot to detect whole Cas9 protein (non-denatured); format: binding; settings: Cas9 (no tag)
Experimental: as §1

[5] = biological target: T3, Cas9 target sequence (PTD12, EKLYLYYLQ, Helix: E813 to Q821) (Streptococcus pyogenes serotype M1, UniProt Q99ZW2); experiment: Dot blot to detect the Cas9 target sequence peptide PTD12; format: binding; settings: for interaction of His-tagged synthetic CAAP oligopeptide with the target peptide PTD12: dot blot, peptide as 1st Ab, Anti-6His Ab-HRP detection
T3 construct: […]; purchased Peptide 2.0
Experimental: as §1
For the image processing, we used Adobe Photoshop 7.0. Quantitative image analysis of the digital images was carried out using measuring tools of imaging software ImageJ (Schneider et al. 2012). Image analysis results were calculated by averaging data from three independent experiments.

[6] = tested on: whole proteome of E. coli BL21 Star DE3; experiment: Western blot to detect binders in the whole proteome of E. coli BL21 Star DE3 (specificity); format: binding
From the text: For the western blot analysis, the protein samples were resolved in 4-20% gradient SDS-PAGE gel, transferred to NC membrane, and subjected to the western blot analysis using the same method for the dot blot analysis.

[7] = biological target: control peptide (PTD8, unrelated peptide) (Escherichia coli, UniProt P00634); settings: dot blot, unrelated target (negative control)
Experimental: For dot blot analysis, 1 μl (2.5 μg) or 2 μl (5 μg) of samples were spotted onto the nitrocellulose (NC) membrane and dried completely. Then, non-specific sites were blocked by soaking the membrane in the blocking solution made for NC membranes [Thermo Fisher Scientific, WesternBreeze™ Blocker/Diluent (Part A and B), catalog #WB7050]. The membrane was washed twice with water (1 ml per cm^2 membrane), and incubated with the 1st antibody (Ab) in a binding/wash (BW) buffer [50 mM sodiumphosphate, pH 8.0, 300 mM NaCl, and 0.01% Tween 20] for 1 h. The membrane was washed 4 times (for 2 minutes per wash) with the wash buffer [Thermo Fisher Scientific, WesternBreeze™ Wash Solution, catalog #WB7003]. If the 1st oligopeptide was Anti-Cas9 Ab-HRP conjugate [Thermo Fisher Scientific, catalog #MAC133P] or the peptide-AP fusions, the membrane was washed twice with water, and incubated with the chromogenic substrates, Chromogenic Substrate (TMB) [Thermo Fisher Scientific, catalog #WP20004] for HRP and NBT/BCIP substrate solution for AP [Thermo Fisher Scientific, catalog #34042]. Otherwise, the membrane was incubated with in the blocking solution for 1 h. To detect His-tagged peptide and proteins, the Anti-6His Ab-HRP conjugate [Thermo Fisher Scientific, catalog 46-0707] was used. Then the membrane was washed four times with the wash buffer and two times with water. […]

Cas9 nuclease = biological target: T4, Cas9 nuclease (Streptococcus pyogenes serotype M1, UniProt Q99ZW2); experiment: Cas9 activity assay in vitro (RNA-guided cleavage of 510 bp human AAVS1 DNA); format: biochemical
T4 construct: made in house; host or cells: E. coli BL21 Star (DE3)
From the text: The sgRNA targeting human AAVS1 region (target sequence […] (SEQ ID NO: 36), PAM sequence underlined) was synthesized by in vitro transcription using a 118 bp PCR-assembled DNA fragment AAVS1_T23826 as template, following the manufacturer's protocol [Thermo Fisher Scientific, TranscriptAid T7 High Yield Transcription Kit, catalog #K0441]. The sgRNA product was purified using the GeneJET RNA Purification Micro Column [Thermo Fisher Scientific, catalog #K0841].
A 510 bp human AAVS1 region was amplified from HEK293 genomic DNA by PCR using a primer set (CH1161 and CH1162) and used as a target DNA for the in vitro CRISPR/Cas9 assay. Performance of the Cas9 protein was assessed in various concentrations of Cas9 [100, 50, 25, 12.5, and 0 ng] in presence or absence of sgRNA and peptides (PTD14 (SEQ ID NO: 11) and PTD16 (SEQ ID NO: 30)) in the 1× buffer K [20 mM Tris-HCl, pH 8.5, 10 mM MgCl2, 1 mM Dithiothreitol (DTT), and 100 mM KCl]. The PTD16 (SEQ ID NO: 30) was used as an unrelated peptide control. The reaction mixture was incubated at 37° C. for 15 minutes. The reaction was stopped by adding a stop buffer [1 mM Tris-HCl (pH 7.5), 10 mM EDTA, 6.5% (w/v) Sucrose, 0.03% (w/v) Bromophenol Blue] and heat inactivated at 75° C. for 5 minutes. The reaction samples were resolved in 4% agarose gel.

T4 sequence (Q99ZW2 whole entry): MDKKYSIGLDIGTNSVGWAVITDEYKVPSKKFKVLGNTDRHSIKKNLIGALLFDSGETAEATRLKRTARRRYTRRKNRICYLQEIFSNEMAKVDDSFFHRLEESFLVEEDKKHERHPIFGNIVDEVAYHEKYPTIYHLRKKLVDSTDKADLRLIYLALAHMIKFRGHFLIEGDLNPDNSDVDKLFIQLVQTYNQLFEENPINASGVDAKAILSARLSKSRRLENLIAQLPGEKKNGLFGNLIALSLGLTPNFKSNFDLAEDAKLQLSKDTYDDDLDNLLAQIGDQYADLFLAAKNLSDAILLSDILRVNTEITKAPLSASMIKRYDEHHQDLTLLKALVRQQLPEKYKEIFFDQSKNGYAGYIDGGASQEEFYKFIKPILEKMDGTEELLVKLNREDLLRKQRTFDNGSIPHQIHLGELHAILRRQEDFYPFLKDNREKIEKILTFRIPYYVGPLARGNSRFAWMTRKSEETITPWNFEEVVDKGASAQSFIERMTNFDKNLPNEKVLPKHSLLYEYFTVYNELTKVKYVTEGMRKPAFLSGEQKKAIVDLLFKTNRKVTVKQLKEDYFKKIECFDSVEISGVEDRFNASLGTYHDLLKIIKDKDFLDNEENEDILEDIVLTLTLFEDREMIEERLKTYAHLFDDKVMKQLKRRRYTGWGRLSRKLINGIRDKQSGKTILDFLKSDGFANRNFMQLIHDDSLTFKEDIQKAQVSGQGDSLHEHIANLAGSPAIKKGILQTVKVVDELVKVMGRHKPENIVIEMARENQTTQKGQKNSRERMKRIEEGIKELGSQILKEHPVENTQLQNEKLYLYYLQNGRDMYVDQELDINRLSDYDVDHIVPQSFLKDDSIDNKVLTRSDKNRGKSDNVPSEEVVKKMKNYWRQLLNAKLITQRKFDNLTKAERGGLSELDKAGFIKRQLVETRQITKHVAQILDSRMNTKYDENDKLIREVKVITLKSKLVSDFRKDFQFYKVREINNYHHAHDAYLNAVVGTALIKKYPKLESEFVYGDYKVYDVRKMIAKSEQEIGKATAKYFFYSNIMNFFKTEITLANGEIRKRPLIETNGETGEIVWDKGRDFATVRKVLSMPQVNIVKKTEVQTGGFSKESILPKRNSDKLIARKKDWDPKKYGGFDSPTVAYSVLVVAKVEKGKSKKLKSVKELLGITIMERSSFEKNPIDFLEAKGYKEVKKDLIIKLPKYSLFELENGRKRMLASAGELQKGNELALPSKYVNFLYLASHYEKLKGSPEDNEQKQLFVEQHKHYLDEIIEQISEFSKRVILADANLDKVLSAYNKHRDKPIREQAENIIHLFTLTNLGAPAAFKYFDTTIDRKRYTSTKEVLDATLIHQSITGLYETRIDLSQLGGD
T2 sequence (Q99ZW2 whole entry): as above

Sequence: DLDYAQLRDKCYPENEDRLQSYDLDGSGSHHHHHH [PTD18, His-tagged CAAP oligopeptide dimer, parallel and antiparallel, against PDGF-β]
- interaction with the PDGF-β target oligopeptide PTD10 [1]: bound to the target

Sequence: EDRLQSYDLDGSGSHHHHHH [PTD17, His-tagged CAAP oligopeptide monomer, antiparallel, against PDGF-β]
- interaction with the PDGF-β target oligopeptide PTD10 [1]: no detectable interaction

Sequence: EYRLYLRALCYPENLSRAYLSYEGSGSHHHHHH [PTD16]
- interaction with the AP target oligopeptide PTD8 [2]: bound to the target

Sequence: GSGSHHHHHH [PTD20, linker-His-tag only, negative control, reference compound]
- interaction with the AP target oligopeptide PTD8 [2]: no detectable interaction
- interaction with the PDGF-β target oligopeptide PTD10 [1]: no detectable interaction

Sequence: LEQIKIRLFGSGSHHHHHH [PTD13]
- detection of whole Cas9 protein in western blot (Cas9 protein [3]): unable to detect
- detection of whole Cas9 protein in dot blot (Cas9 protein [4]): unable to detect
- interaction of His-tagged synthetic CAAP oligopeptide with the target peptide PTD12 [5]: could interact; also recorded: detected
- number of major bands detected in E. coli whole cell lysate [6]: one
- number of minor bands detected in E. coli whole cell lysate [6]: 2
- interaction of His-tagged synthetic CAAP oligopeptide with the control peptide PTD8 [7]: no interaction

Sequence: LLQVDVILLCYPENLEQIKIRLFGSGSHHHHHH [PTD14]
- detection of whole Cas9 protein in western blot (Cas9 protein [3]): able to detect
- detection of whole Cas9 protein in dot blot (Cas9 protein [4]): able to detect
- strength of interaction with PTD12 relative to monomer PTD13 ([5]; dot blot densitometry, dimer vs monomer): stronger (two-fold)
- interaction of His-tagged synthetic CAAP oligopeptide with the target peptide PTD12 [5]: could interact
- number of major bands detected in E. coli whole cell lysate [6]: one
- number of minor bands detected in E. coli whole cell lysate [6]: 4
- interaction of His-tagged synthetic CAAP oligopeptide with the control peptide PTD8 [7]: no interaction
- effect on RNA-guided DNA cleavage by Cas9 nuclease (Cas9 nuclease; 510 bp AAVS1 DNA, 37° C. 15 minutes, PTD16 as unrelated peptide control): no significant effect
- non-specific DNA binding activity of the Cas9 protein directed by the peptide (Cas9 nuclease; presence or absence of gRNA, various Cas9 concentrations): significant induction; also recorded: very strong

Sequence: LSRAYLSYEGSGSHHHHHH [PTD15]
- interaction with the AP target oligopeptide PTD8 [2]: no detectable interaction
